# Molecular target: CD8 (protein not named in Table 16)
binder,measurement,value
CD8 binder 97 (VHH) (VHH) VHH: QVQLVESGGGLVQAGGSLRLSCAASGRTFSGYVMGWFRQAPGKQRKFVAAISRGGLSTSYADSVKGRFTISRDNAKNTVFLQMNTLKPEDTAVYYCAADRSDLYEITAASNIDSWGQGTLVTVSS,Highest Response (nm),0.465 nm
same,Kd,5.3 nM
same,koff,0.000272 s⁻¹
same,kon,51400 M⁻¹ s⁻¹

# From US20260265780A1
